In the supplement of paper PMC9732359:
± gives the uncertainty stated by the source.

Assay: protein stability index of a GFP-peptide fusion (yeast GPS) (PSI 1-4); higher = more stable; sorted into four equal gates, so the index is relative within each strain
Outline: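 Tiled 17-residue yeast protein peptides were fused downstream of GFP in a plasmid that also expresses Cherry, and the pooled library was carried in yeast. Mid-log cultures in leucine-free medium were sorted into four equal gates by GFP/Cherry fluorescence ratio, and plasmids from each gate were PCR-amplified and Illumina-sequenced, with reads assigned to strains by barcodes. The protein stability index for each peptide was each gate's read frequency times its gate number, summed.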

Sequence | protein stability index (doa10∆) | protein stability index (pdr5∆) | protein stability index (san1∆) | protein stability index (ubr1∆)
TGKITKMFQDIRLSKIL [CDC53] | 2.73 ± 0.07 | 3.03 ± 0.093 | 2.66 ± 0.071 | 2.86 ± 0.069
TRNITDYSINSRYEPKV [PRE7] | 2.62 ± 0.053 | 2.7 ± 0.049 | 2.99 ± 0.046 | 2.88 ± 0.047
KRPRSRTLTAVHDKVLE [RPS7B] | 3.36 ± 0.17 | 2.99 ± 0.13 | 3.02 ± 0.07 | 2.08 ± 0.24
FGHIMEDFQVLRLGRGI [YDL088C/ASM4] | 3.04 ± 0.066 | 2.96 ± 0.055 | 2.49 ± 0.068 | 2.96 ± 0.044
INNNINIPQQQQMQPPN [GAL11] | 2.58 ± 0.07 | 2.87 ± 0.073 | 2.83 ± 0.049 | 2.84 ± 0.056
QRFVGHKSDVMSVDIDK [ASC1] | 3.04 ± 0.095 | 3.06 ± 0.061 | 2.69 ± 0.082 | 2.96 ± 0.071
STMTEPVKQSFIRKYIN [GAL11] | 2.56 ± 0.082 | 2.2 ± 0.065 | 1.96 ± 0.092 | 2.47 ± 0.053
TDANGKTIVTGGNGPED [RPO26] | 3.62 ± 0.21 | 3.28 ± 0.099 | 3.48 ± 0.12 | 3.37 ± 0.057
NKLTGKQIVFEIPSQTN [RPS7B] | 2.79 ± 0.081 | 3.06 ± 0.13 | 2.88 ± 0.095 | 2.66 ± 0.086
QRDLGLYVVGLFDTYHA [RRP6] | 2.38 ± 0.046 | 2.53 ± 0.043 | 1.91 ± 0.062 | 2.57 ± 0.033
PIVIIFRALGIIPDGEI [RPB2] | 1.92 ± 0.048 | 1.79 ± 0.056 | 2.05 ± 0.063 | 2.41 ± 0.039
LPVKEFQIIDTLLPGLQ [RPS2] | 2.35 ± 0.15 | 1.83 ± 0.059 | 1.95 ± 0.089 | 1.5 ± 0.063
EVALFSQKAKLMTFNAE [YLR335W/NUP2] | 2.27 ± 0.08 | 1.47 ± 0.057 | 1.5 ± 0.1 | 1.4 ± 0.085
LGDKELWPVAIGLIALS [YJR042W/NUP85] | 1.57 ± 0.17 | 1.65 ± 0.15 | 1.64 ± 0.27 | 1.73 ± 0.16
TEQQIEIPEGVTVSIKS [RPL9B] | 2.24 ± 0.062 | 2.73 ± 0.071 | 2.39 ± 0.067 | 2.47 ± 0.059
QTYGETTAVDALQKGLK [RPC19] | 2.03 ± 0.13 | 1.1 ± 0.12 | 1.16 ± 0.29 | 1.14 ± 0.082
GSIRVHKSGKLSVKIGN [RPC53] | 1.27 ± 0.052 | 1.44 ± 0.047 | 1.75 ± 0.068 | 1.69 ± 0.04
RSRMLPTITLDDVYRPA [SNF5] | 3.12 ± 0.081 | 3.43 ± 0.085 | 3.04 ± 0.075 | 3.06 ± 0.077
ETQYFWKLLNQLVLRGL [YJR042W/NUP85] | 2.18 ± 0.19 | 1.26 ± 0.074 | 1.26 ± 0.11 | 1.16 ± 0.1
RRSTPFSKIAEYYRIQK [ESC2] | 2.77 ± 0.071 | 2.9 ± 0.094 | 2.72 ± 0.078 | 2.94 ± 0.11
DHLIIEPEEEKSKREEE [ARP9] | 3.15 ± 0.27 | – | – | 3.2 ± 0.17
EAFIASGITDPYEMYKY [FAS2] | 1.81 ± 0.038 | 2.06 ± 0.05 | 1.73 ± 0.068 | 2.14 ± 0.045
FAQGKRRYDRKQSGFGG [RPL42A] | 3.6 ± 0.25 | 3.57 ± 0.28 | 3.06 ± 0.29 | 3.34 ± 0.061
NLDGTKAVKLRKSYKNQ [ROX3] | 3.43 ± 0.1 | 3.36 ± 0.096 | 3.39 ± 0.067 | 3.58 ± 0.046
FSNVELPQCIIPSSYIK [ARP7] | 2.38 ± 0.042 | 2.38 ± 0.041 | 2.28 ± 0.051 | 2.45 ± 0.032
WSSEFAKWAPTLRTISF [SNF2] | 2.36 ± 0.057 | 2.41 ± 0.043 | 2.78 ± 0.063 | 2.47 ± 0.056

Sequence | protein stability index (doa10∆) | protein stability index (pdr5∆) | protein stability index (san1∆) | protein stability index (ubr1∆)
DLNPLKTLNLFKQIKSA [RPO31] | 2 ± 0.16 | 1.37 ± 0.033 | 2.62 ± 0.11 | 2.15 ± 0.071
INTLNGGSSDTADKIRI [GAL11] | 2.34 ± 0.098 | 2.02 ± 0.088 | 1.27 ± 0.094 | 1.4 ± 0.066
ITASTLLYADSLTAEAM [CYT1] | 2.1 ± 0.064 | 2.31 ± 0.059 | 2.51 ± 0.095 | 2.18 ± 0.039
EQFYTKDIIDPKLTSIF [RPN2] | 2.32 ± 0.11 | 2.92 ± 0.11 | 2.36 ± 0.11 | 2.47 ± 0.09
ALGMMTRISSQFEKSRK [RET1] | 1.39 ± 0.066 | 1.27 ± 0.09 | 1.37 ± 0.17 | 1.08 ± 0.06
KEDTVSWFKQKYDADVL [RPL11A] | 1.5 ± 0.069 | 1.43 ± 0.055 | 1.57 ± 0.1 | 1.53 ± 0.06
GKSEKLSLLLVEDKIPL [SKI6] | 2.45 ± 0.11 | 2.79 ± 0.095 | 3.23 ± 0.056 | 3.27 ± 0.12
DHNALPQRCTFAFEAID [POP1] | 2.36 ± 0.09 | 2.84 ± 0.077 | 2.79 ± 0.089 | 3.09 ± 0.057
IFFNIPLVAHLGLYVGV [YJL039C/NUP192] | 1.42 ± 0.044 | 1.4 ± 0.059 | 1.27 ± 0.1 | 1.33 ± 0.048
DPSQNRLTGSLLAHKVA [RPC37] | 2 ± 0.05 | 2.15 ± 0.06 | 1.69 ± 0.095 | 2.31 ± 0.038
GGTNEDDFTDAIQFVKE [YCS4] | 2.35 ± 0.14 | 2.6 ± 0.15 | 3.39 ± 0.07 | 3.69 ± 0.19
FIERNFTPQEIEYCSAQ [FAS2] | – | 3.54 ± 0.26 | 2.72 ± 0.26 | 2.73 ± 0.22
TKIIMATNRPDTLDPAL [RPT4] | 2.98 ± 0.065 | 3 ± 0.063 | 2.9 ± 0.054 | 3.12 ± 0.1
LQKQILTVENKLQFETD [SMC1] | 2.6 ± 0.069 | 2.37 ± 0.052 | 2.55 ± 0.047 | 2.9 ± 0.046
NDEKRVKEEYDIWQSRD [YIL149C/MLP2] | 3.22 ± 0.062 | 3.06 ± 0.078 | 3.25 ± 0.049 | 3.39 ± 0.084
ETTTEEDSENPSDWQRN [ITC1] | 3.31 ± 0.17 | 3.31 ± 0.095 | 3.06 ± 0.11 | 3.38 ± 0.083
KRAEKAARKAEKAKSAG [RPL24B] | 2.91 ± 0.073 | 2.48 ± 0.051 | 1.55 ± 0.087 | 2.92 ± 0.04
GSIEEPELNVSLNLTDD [MCD1] | 3.38 ± 0.058 | 3.44 ± 0.05 | 3.15 ± 0.064 | 3.39 ± 0.04
SAYEASMVYSNVGELIE [RRP4] | 1.64 ± 0.057 | 2.22 ± 0.054 | 2.32 ± 0.058 | 1.85 ± 0.048
KNQLRDWIRFVSIRQNQ [RPL22B] | 1.51 ± 0.1 | 1.64 ± 0.061 | – | 1.29 ± 0.091
VTEANIIKLVEGLANDP [RPS12] | 2.51 ± 0.12 | 2.76 ± 0.073 | 2.67 ± 0.085 | 2.73 ± 0.073
EGPKKCIQVNCLNCEKS [SNM1] | 2.62 ± 0.079 | 2.04 ± 0.058 | 2.8 ± 0.073 | 2.22 ± 0.049
LQIESVTKETVHPRKSY [PRP8] | – | 3.02 ± 0.13 | 2.97 ± 0.054 | 3.11 ± 0.11
KKASKVTVDADIDDILK [ISW2] | 2.75 ± 0.081 | 3.18 ± 0.065 | 3 ± 0.058 | 3.1 ± 0.046
SLHILMIFWNDICQIDT [SRB8] | 1.36 ± 0.031 | 1.33 ± 0.032 | 1.52 ± 0.053 | 1.92 ± 0.029
QLDSYLVNGFSQSQQKL [MED2] | 2.02 ± 0.05 | 2.35 ± 0.063 | 2.38 ± 0.064 | 2.72 ± 0.046
